The target in this experiment is SLAMF7 (CS1, CD319, CRACC) on NK92MI cells (human) (UniProt Q9NQ25). Briefly: flow cytometry, cross-linking of violet-stained NK92MI cells with PKH26-stained P. aeruginosa RP73; controls without molecule 0.29 and 0.31.

B1: BiKE B′: ELO scFv [(RTX VL 10-first amino-acids/ELO (VL-VH)] anti-SLAMF7.C4bpβ.scFv (VL-VH) anti-Psl.FLAG (bispecific antibody, not shown: small tags and cut ends)
chain: RSQIVLSQSPAILSASVGDRVTITCKASQDVGIAVAWYQQKPGKVPKLLIYWASTRHTGVPDRFSGSGSGTDFTLTISSLQPEDVATYYCQQYSSYPYTFGQGTKVEIKGGSSRSSSSGGGGSGGGGEVQLVESGGGLVQPGGSLRLSCAASGFDFSRYWMSWVRQAPGKGLEWIGEINPDSSTINYAPSLKDKFIISRDNAKNSLYLQMNSLRAEDTAVYYCARPDGNYWYFDVWGQGTLVTVSSASGGGGSSGGGGSSGGGGSIQEAPKPECEKALLAFQESKNLCEAMENFMQQLKESGMTMEELKYSLELKKAELKAKLLSGGGGSSGGGGSSGGGGSDIQLTQSPSSLSASVGDRVTITCRASQSIRSHLNWYQQKPGKAPKLLIYGASNLQSGVPSRFSGSGSGTDFTLTISSLQPEDFATYYCQQSTGAWNWFGCGTKVEIKGGGGSGGGGSGGGGSGGGGSQVQLQESGPGLVKPSETLSLTCTVSGGSISPYYWTWIRQPPGKCLELIGYIHSSGYTDYNPSLKSRVTISGDTSKKQFSLKLSSVTAADTAVYYCARADWDRLRALDIWGQGTMVTVSS
modifications: Covalent homodimer through the cysteines of the C4bp beta fragment; one chain is given.
B1: the % colocalization (violet+PKH26+) was 1.85%.

The values are drawn from US20240360189A1.
